Data as given in patent US20150203583A1.

Target: Fc receptor on monocytes of human PBMC effector cells (human)
Experiment: cell-based or functional assay

maximal ADCC activity on KIT225/K6 cells, against ZENAPAX DAC and DAC Penzberg: 30 to 40 % lower
Substance: DAC HYP (daclizumab, humanized IgG1 anti-CD25 monoclonal antibody made by the high yield process in NS0 cells)
